Experimental data as given in the supplement of paper PMC10567573.

B1: TRAF3IP2 (parent)
chain: PRPPSNPPARGTLKTSNLPEELRK
B2: TRIM15 (parent)
chain: QSSGKILLCPLCQEEEQAETPMAP

Variants of: B1
Assay: protein stability index of a GFP-peptide fusion (GPS, HEK-293T) (PSI 1-6); higher = more stable
Settings: c terminus: a fixed tail appended
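Further: lentivirally expressed fusions sorted by FACS into six bins by GFP to DsRed ratio, PSI derived from sequencing read proportions per bin multiplied by bin number.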

Going from WRPPSNPPARGTLKTSNLPEELRK to VRPPSNPPARGTLKTSNLPEELRK, the protein stability index falls from 4.76 to 4.42.

Going from RRPPSNPPARGTLKTSNLPEELRK to CRPPSNPPARGTLKTSNLPEELRK, the protein stability index rises from 4.44 to 4.46.

First: DRPPSNPPARGTLKTSNLPEELRK
Second: ERPPSNPPARGTLKTSNLPEELRK
The protein stability index of the first is higher: 4.6 for the first, 4.43 for the second.

Compared with ARPPSNPPARGTLKTSNLPEELRK, QRPPSNPPARGTLKTSNLPEELRK is higher in protein stability index: 4.49 for the first, 4.74 for the second.

First: NRPPSNPPARGTLKTSNLPEELRK
Second: KRPPSNPPARGTLKTSNLPEELRK
The protein stability index of the first is lower: 4.59 for the first, 4.63 for the second.

Going from IRPPSNPPARGTLKTSNLPEELRK to LRPPSNPPARGTLKTSNLPEELRK, the protein stability index rises from 4.59 to 4.67.

Going from MRPPSNPPARGTLKTSNLPEELRK to HRPPSNPPARGTLKTSNLPEELRK, the protein stability index falls from 5.07 to 4.64.

Compared with SRPPSNPPARGTLKTSNLPEELRK, YRPPSNPPARGTLKTSNLPEELRK is lower in protein stability index: 4.62 for the first, 4.46 for the second.

Compared with GRPPSNPPARGTLKTSNLPEELRK, TRPPSNPPARGTLKTSNLPEELRK is lower in protein stability index: 4.89 for the first, 4.88 for the second.

First: FRPPSNPPARGTLKTSNLPEELRK
Second: PSPPSNPPARGTLKTSNLPEELRK
The protein stability index of the first is lower: 4.31 for the first, 5.25 for the second.

First: PMPPSNPPARGTLKTSNLPEELRK
Second: PFPPSNPPARGTLKTSNLPEELRK
The protein stability index of the first is lower: 5.08 for the first, 5.09 for the second.

First: PKPPSNPPARGTLKTSNLPEELRK
Second: PVPPSNPPARGTLKTSNLPEELRK
The protein stability index of the first is lower: 4.56 for the first, 4.63 for the second.

First: PCPPSNPPARGTLKTSNLPEELRK
Second: PWPPSNPPARGTLKTSNLPEELRK
The protein stability index of the first is higher: 5.19 for the first, 4.85 for the second.

Compared with PGPPSNPPARGTLKTSNLPEELRK, PEPPSNPPARGTLKTSNLPEELRK is lower in protein stability index: 5.12 for the first, 4.85 for the second.

Compared with PQPPSNPPARGTLKTSNLPEELRK, PLPPSNPPARGTLKTSNLPEELRK is lower in protein stability index: 4.59 for the first, 4.2 for the second.

Going from PRPDSNPPARGTLKTSNLPEELRK to PRPLSNPPARGTLKTSNLPEELRK, the protein stability index falls from 4.7 to 4.58.

Compared with PRPKSNPPARGTLKTSNLPEELRK, PRPCSNPPARGTLKTSNLPEELRK is lower in protein stability index: 4.91 for the first, 4.84 for the second.

Going from PRPQSNPPARGTLKTSNLPEELRK to PRPFSNPPARGTLKTSNLPEELRK, the protein stability index falls from 4.88 to 4.25.

First: PRPNSNPPARGTLKTSNLPEELRK
Second: PRPISNPPARGTLKTSNLPEELRK
The protein stability index of the first is higher: 4.7 for the first, 4.66 for the second.

Going from PRPESNPPARGTLKTSNLPEELRK to PRPHSNPPARGTLKTSNLPEELRK, the protein stability index falls from 4.52 to 4.5.

Compared with PRPGSNPPARGTLKTSNLPEELRK, PRPMSNPPARGTLKTSNLPEELRK is lower in protein stability index: 4.54 for the first, 4.39 for the second.

Compared with PRPASNPPARGTLKTSNLPEELRK, PRDPSNPPARGTLKTSNLPEELRK is higher in protein stability index: 4.79 for the first, 5.07 for the second.

Compared with PRIPSNPPARGTLKTSNLPEELRK, PRRPSNPPARGTLKTSNLPEELRK is lower in protein stability index: 5.05 for the first, 4.54 for the second.

Going from PRNPSNPPARGTLKTSNLPEELRK to PRWPSNPPARGTLKTSNLPEELRK, the protein stability index rises from 4.29 to 4.83.

Going from PRMPSNPPARGTLKTSNLPEELRK to PRLPSNPPARGTLKTSNLPEELRK, the protein stability index rises from 4.42 to 4.5.

Compared with PRCPSNPPARGTLKTSNLPEELRK, PRFPSNPPARGTLKTSNLPEELRK is lower in protein stability index: 5.15 for the first, 4.13 for the second.

Going from PRAPSNPPARGTLKTSNLPEELRK to PRHPSNPPARGTLKTSNLPEELRK, the protein stability index falls from 5.13 to 4.02.

Compared with PRTPSNPPARGTLKTSNLPEELRK, PREPSNPPARGTLKTSNLPEELRK is higher in protein stability index: 4.9 for the first, 5.35 for the second.

Going from PRSPSNPPARGTLKTSNLPEELRK to PRVPSNPPARGTLKTSNLPEELRK, the protein stability index falls from 4.95 to 4.79.

Compared with PRGPSNPPARGTLKTSNLPEELRK, PRYPSNPPARGTLKTSNLPEELRK is lower in protein stability index: 4.82 for the first, 4.7 for the second.

Going from PRQPSNPPARGTLKTSNLPEELRK to PRKPSNPPARGTLKTSNLPEELRK, the protein stability index rises from 4.2 to 4.88.

Variants of: B2
Assay: as above
Settings: c terminus: a fixed tail appended

Going from QSSGKILLCPLCQEEEQAETPVAP to QSSGKILLCPLCQEEEQAETPCAP, the protein stability index rises from 2.28 to 5.56.

First: QSSGKILLCPLCQEEEQAETPFAP
Second: QSSGKILLCPLCQEEEQAETPYAP
The protein stability index of the first is lower: 2.86 for the first, 3.08 for the second.

Compared with QSSGKILLCPLCQEEEQAETPDAP, QSSGKILLCPLCQEEEQAETPTAP is higher in protein stability index: 4.14 for the first, 4.48 for the second.

First: QSSGKILLCPLCQEEEQAETPIAP
Second: QSSGKILLCPLCQEEEQAETPAAP
The protein stability index of the first is lower: 3.45 for the first, 3.99 for the second.

Going from QSSGKILLCPLCQEEEQAETPGAP to QSSGKILLCPLCQEEEQAETPLAP, the protein stability index rises from 4.22 to 4.28.

Going from QSSGKILLCPLCQEEEQAETPEAP to QSSGKILLCPLCQEEEQAETPKAP, the protein stability index falls from 4.34 to 3.16.

Going from QSSGKILLCPLCQEEEQAETPNAP to QSSGKILLCPLCQEEEQAEEPMAP, the protein stability index rises from 3.52 to 3.92.

Compared with QSSGKILLCPLCQEEEQAEAPMAP, QSSGKILLCPLCQEEEQAEGPMAP is lower in protein stability index: 3.65 for the first, 2.49 for the second.

Going from QSSGKILLCPLCQEEEQAEFPMAP to QSSGKILLCPLCQEEEQAENPMAP, the protein stability index rises from 2.84 to 3.4.

Compared with QSSGKILLCPLCQEEEQAEHPMAP, QSSGKILLCPLCQEEEQAEQPMAP is higher in protein stability index: 3.46 for the first, 3.5 for the second.

First: QSSGKILLCPLCQEEEQAELPMAP
Second: QSSGKILLCPLCQEEEQAESPMAP
The protein stability index of the first is higher: 3.8 for the first, 3.5 for the second.

First: QSSGKILLCPLCQEEEQAEPPMAP
Second: QSSGKILLCPLCQEEEQAECPMAP
The protein stability index of the first is lower: 3.16 for the first, 3.54 for the second.

First: QSSGKILLCPLCQEEEQAEKPMAP
Second: QSSGKILLCPLCQEEEQAEWPMAP
The protein stability index of the first is higher: 4 for the first, 2.16 for the second.

Going from QSSGKILLCPLCQEEEQAEDPMAP to QSSGKILLCPLCQEEEQAEYPMAP, the protein stability index falls from 3.66 to 2.89.

Going from QSSGKILLCPLCQEEEQAERPMAP to QSSGKILLCPLCQEEEQAEIPMAP, the protein stability index rises from 3.07 to 3.5.

Going from QSSGKILLCPLCQEEEQAETEMAP to QSSGKILLCPLCQEEEQAETSMAP, the protein stability index rises from 3.18 to 3.76.
